This assay has as its target Gαi1 subunit (human, UniProt P63096). The assay can be described thus: cryo-EM structure.

B1: hNTSR1(∆ICL3; residues 20-418, A85L, ∆282-291) (receptor)
chain: QRAQAGLEEALLAPGFGNASGNASERVLAAPSSELDVNTDIYSKVLVTAVYLALFVVGTVGNTVTLFTLARKKSLQSLQSTVHYHLGSLALSDLLTLLLAMPVELYNFIWVHHPWAFGDAGCRGYYFLRDACTYATALNVASLSVERYLAICHPFKAKTLMSRSRTKKFISAIWLASALLAVPMLFTMGEQNRSADGQHAGGLVCTPTIHTATVKVVIQVNTFMSFIFPMVVISVLNTIIANKLTVMVRQAAEQGQVCTVGGPGRVQALRHGVRVLRAVVIAFVVCWLPYHVRRLMFCYISDEQWTPFLYDFYHYFYMVTNALFYVSSTINPILYNLVSANFRHIFLATLACLCPVWRRRRKRPAFSRKADSVSSNHTLSSNATRETLY
On to B1, for which the binding result is reported as “binds”.

The record behind these values is paper PMC7065593 (Nature, 2019).
